{
  "source": "paper PMC3794606",
  "about": "“Transactivation specificity is conserved among p53 family proteins and depends on a response element sequence code” (Nucleic Acids Research, 2013)",
  "binders": {"B1": {"name": "20mer GAACA full-site (0/4 RY) (dsDNA)", "DNA 1": "GAACATGTTCGAACATGTTC", "DNA 2": "GAACATGTTCGAACATGTTC"}, "B2": {"name": "p73DBD S139F (human p73 DNA-binding domain, residues 115-312, S139F mutant) (domain or fragment, UniProt O15350 115-312, looked up)", "chain": "IPSNTDYPGPHHFEVTFQQSSTAKFATWTYSPLLKKLYCQIAKTCPIQIKVSTPPPPGTAIRAMPVYKKAEHVTDVVKRCPNHELGRDFNEGQSAPASHLIRVEGNNLSQYVDDPVTGRQSVVVPYEPPQVGTEFTTILYNFMCNSSCVGGMNRRPILIIITLEMRDGQVLGRRSFEGRICACPGRDRKADEDHYREQ", "notes": "Crystallised with a 20 bp GAACA full-site DNA; On the DNA it forms a tetramer (dimer of dimers); also called p73 S139F DBD; S139F DBD mutant"}, "B3": {"name": "12mer GGGCA half-site (dsDNA)", "DNA 1": "TGGGCATGCCCA", "DNA 2": "TGGGCATGCCCA"}, "B4": {"name": "20mer GGGCA full-site (4/4 RY) (dsDNA)", "DNA 1": "GGGCATGCCCGGGCATGCCC", "DNA 2": "GGGCATGCCCGGGCATGCCC"}},
  "key": {"[1]": {"molecular_target": "T1, deltaNp73delta isoform WT (UniProt O15350-4 63-403)", "T1 sequence": "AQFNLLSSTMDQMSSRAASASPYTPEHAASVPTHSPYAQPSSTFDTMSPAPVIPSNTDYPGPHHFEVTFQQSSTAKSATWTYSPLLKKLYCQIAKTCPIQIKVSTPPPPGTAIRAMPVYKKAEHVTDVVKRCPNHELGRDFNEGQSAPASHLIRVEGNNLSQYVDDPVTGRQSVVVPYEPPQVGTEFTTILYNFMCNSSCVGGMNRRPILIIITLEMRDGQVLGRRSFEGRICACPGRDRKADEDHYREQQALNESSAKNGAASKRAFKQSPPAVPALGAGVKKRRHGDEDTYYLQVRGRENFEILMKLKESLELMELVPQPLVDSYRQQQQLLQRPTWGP", "test": "fluorescence polarization; FP: 50 nM fluorescein-DNA, 0-20000 nM protein, 30 min on ice then room temperature; buffer, salt and pH not stated. Crystals: 0.1 M Tris pH 8.5, 50-125 mM sodium acetate, 20-24% PEG 3350, room temperature", "details": "protein: recombinant, chain copies: 4, label: fluorescein"}, "p73 DBD S139F [2]": {"molecular_target": "T2, p73 DBD S139F (human, UniProt O15350 115-312, S139F)", "T2 sequence": "B2 chain", "test": "fluorescence polarization; Hill 1.7 ± 0.1; FP: 50 nM fluorescein-DNA, 0-20000 nM protein, 30 min on ice then room temperature; buffer, salt and pH not stated. Crystals: 0.1 M Tris pH 8.5, 50-125 mM sodium acetate, 20-24% PEG 3350, room temperature", "details": "protein: recombinant; chain copies: 2; label: fluorescein; self-complementary"}, "[3]": {"molecular_target": "the molecule itself", "test": "crystal structure; p73DBD S139F mixed at 2:1 molar ratio with annealed 20 bp DNA (…); hanging drop, 0.1 M Tris pH 8.5, 50-125 mM sodium acetate, 20-24% PEG 3350, room temperature; 3.7 A; asymmetric unit holds two protein molecules and one 10 bp half-site, the tetramer is made by crystal symmetry"}, "p73 DBD S139F [4]": {"molecular_target": "T2, p73 DBD S139F", "test": "fluorescence polarization; Hill 1.5 ± 0.2; FP: 50 nM fluorescein-DNA, 0-20000 nM protein, 30 min on ice then room temperature; buffer, salt and pH not stated. Crystals: 0.1 M Tris pH 8.5, 50-125 mM sodium acetate, 20-24% PEG 3350, room temperature", "details": "protein: recombinant; chain copies: 2; label: fluorescein; self-complementary"}, "p73 DBD S139F [5]": {"molecular_target": "T2, p73 DBD S139F", "test": "fluorescence polarization; Hill 1.9 ± 0.2; FP: 50 nM fluorescein-DNA, 0-20000 nM protein, 30 min on ice then room temperature; buffer, salt and pH not stated. Crystals: 0.1 M Tris pH 8.5, 50-125 mM sodium acetate, 20-24% PEG 3350, room temperature", "details": "protein: recombinant; chain copies: 2; label: fluorescein"}},
  "data": [
    {"binder": "B1", "values": [
      {"measurement": "Kd", "setting": "[1]; self-complementary", "result": 940, "unit": "nM"},
      {"measurement": "Kd", "setting": "p73 DBD S139F [2]", "result": 4.48, "unit": "µM"}
    ]},
    {"binder": "B2", "values": [
      {"measurement": "stoichiometry N", "setting": "[3]", "result": 4}
    ]},
    {"binder": "B3", "values": [
      {"measurement": "Kd", "setting": "p73 DBD S139F [4]", "result": 1540, "unit": "nM"}
    ]},
    {"binder": "B4", "values": [
      {"measurement": "Kd", "setting": "[1]", "result": 160, "unit": "nM"},
      {"measurement": "Kd", "setting": "p73 DBD S139F [5]", "result": 230, "unit": "nM"}
    ]}
  ]
}
